According to US20180105584A1 (published 2018):

Molecular target: SpA on the surface of live S. aureus TCH1516 (USA300 MRSA strain) (Staphylococcus aureus strain USA300 …, UniProt A0A0H3K686 37-508)
Test: cell-based or functional assay

B1: 10901_QRF (Lys274Gln, His435Arg, Tyr436Phe Fc mutant), CHO expressed IgG1 (antibody)
heavy: EVQLVQSGAEVKKPGASVKVSCKASGYTFSHYYMHWVRQAPGQGLEWMGIINPRYGSTSYAQKFQGRVTMTRDTSTSTVYMELSSLRSEDTAVYYCARDGEVGARDLGWFDPWGQGTLVTVSSASTKGPSVFPLAPSSKSTSGGTAALGCLVKDYFPEPVTVSWNSGALTSGVHTFPAVLQSSGLYSLSSVVTVPSSSLGTQTYICNVNHKPSNTKVDKKVEPKSCDKTHTCPPCPAPELLGGPSVFLFPPKPKDTLMISRTPEVTCVVVDVSHEDPEVQFNWYVDGVEVHNAKTKPREEQYNSTYRVVSVLTVLHQDWLNGKEYKCKVSNKALPAPIEKTISKAKGQPREPQVYTLPPSRDELTKNQVSLTCLVKGFYPSDIAVEWESNGQPENNYKTTPPVLDSDGSFFLYSKLTVDKSRWQQGNVFSCSVMHEALHNRFTQKSLSLSPG
light: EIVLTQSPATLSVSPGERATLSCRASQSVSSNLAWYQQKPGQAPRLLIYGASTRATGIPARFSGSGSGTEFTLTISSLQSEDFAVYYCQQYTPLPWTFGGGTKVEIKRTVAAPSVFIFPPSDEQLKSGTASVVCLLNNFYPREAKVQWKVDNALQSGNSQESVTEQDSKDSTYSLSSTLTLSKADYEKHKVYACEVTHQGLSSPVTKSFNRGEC
  killing of S. aureus in opsonophagocytic killing (OPK) assay with human PMNs: ~80%
